Consider one molecule from patent publication US20150010575A1 (SAMSUNG ELECTRONICS, published 2015).

The target of the assay is T1, human c-Met/Fc fusion protein (R&D Systems) (human, UniProt P08581 25-932).
T1 construct: Bought from R&D Systems; Coated on microtiter plates at 2 ug/mL; also called human c-Met/Fc protein; not shown: Fc part of the bought fusion protein; not described
Briefly: ELISA, human c-Met/Fc coated at 2 ug/mL, hybridoma culture, anti-mouse IgG-HRP. The protocol: Human c-Met/Fc fusion protein was seeded in an amount of 50 μL (2 μg/mL)/well to microtiter plates and allowed to adhere to the surface of each well. The antibody that remained unbound was removed by washing.
The hybridoma cell culture obtained in Reference Example 1.1.2 was added in an amount of 50 μL to each well of the plates and incubated for 1 hour. The cells remaining unreacted were washed out with a sufficient amount of Tris-buffered saline and Tween 20 (TBST). Goat anti-mouse IgG-horseradish peroxidase (HRP) was added to the plates and incubated for 1 hour at room temperature. The plates were washed with a sufficient amount of TBST, followed by reacting the peroxidase with a substrate (OPD). Absorbance at 450 nm was measured on an ELISA reader.
For orientation: In an ELISA, binding on a coated surface is turned into a signal by an enzyme label.

T1 sequence (P08581 25-932 limits assumed): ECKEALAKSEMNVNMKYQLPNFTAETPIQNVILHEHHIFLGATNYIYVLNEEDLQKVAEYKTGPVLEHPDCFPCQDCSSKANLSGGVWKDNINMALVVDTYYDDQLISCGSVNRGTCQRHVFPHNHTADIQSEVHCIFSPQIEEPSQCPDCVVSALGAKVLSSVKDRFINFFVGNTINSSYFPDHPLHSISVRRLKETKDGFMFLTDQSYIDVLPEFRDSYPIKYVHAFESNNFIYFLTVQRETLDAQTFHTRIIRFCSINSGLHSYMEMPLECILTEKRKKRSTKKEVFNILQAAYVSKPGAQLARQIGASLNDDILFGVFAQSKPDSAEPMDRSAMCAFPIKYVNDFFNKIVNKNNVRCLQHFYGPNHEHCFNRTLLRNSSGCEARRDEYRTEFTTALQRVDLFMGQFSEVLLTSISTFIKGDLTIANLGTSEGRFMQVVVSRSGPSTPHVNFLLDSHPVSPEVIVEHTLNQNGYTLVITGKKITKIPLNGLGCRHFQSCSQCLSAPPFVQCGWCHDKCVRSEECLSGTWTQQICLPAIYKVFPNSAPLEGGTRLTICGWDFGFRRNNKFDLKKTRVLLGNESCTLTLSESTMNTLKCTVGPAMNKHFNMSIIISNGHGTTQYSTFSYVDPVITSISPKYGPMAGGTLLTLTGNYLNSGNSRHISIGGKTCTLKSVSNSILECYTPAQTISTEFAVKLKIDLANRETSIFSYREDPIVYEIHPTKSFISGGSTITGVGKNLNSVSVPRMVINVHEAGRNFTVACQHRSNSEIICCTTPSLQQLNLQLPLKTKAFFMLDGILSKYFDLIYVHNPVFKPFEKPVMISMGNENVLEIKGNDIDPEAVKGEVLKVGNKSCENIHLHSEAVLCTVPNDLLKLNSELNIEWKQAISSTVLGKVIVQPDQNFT

B1: AbF46, a mouse antibody to c-Met (antibody, V domains shown)
VH: EVKLVESGGGLVQPGGSLRLSCATSGFTFTDYYMSWVRQPPGKALEWLGFIRNKANGYTTEYSASVKGRFTISRDNSQSILYLQMDTLRAEDSATYYCARDNWFAYWGQGTLVTVSA
VL: DILMTQSPSSLTVSAGEKVTMSCKSSQSLLASGNQNNYLAWHQQKPGRSPKMLIIWASTRVSGVPDRFIGSGSGTDFTLTINSVQAEDLAVYYCQQSYSAPLTFGAGTKLELK
notes: Mouse monoclonal antibody, tested as hybridoma culture supernatant in the selection ELISA; also called monoclonal antibody of hybridoma KCLRF-BP-00220
Regarding B1, the binding result is “binds”.
